Data as given in paper PMC5000598.

Tests used:
[1] = molecular target: LZ-EGFR-GFP (chimeric EGFR with the extracellular domain replaced by the c-Fos leucine zipper, GFP at the C-terminus) (UniProt P01100); test: cross-linking; homogenates of transiently transfected 293T cells in PBS, 6 mM DSS, 30 min at room temperature, quenched with 250 mM glycine; membrane pellet lysed, SDS-PAGE, immunoblot with anti-EGFR and anti-GFP; EGFR-GFP cells stimulated with EGF (100 ng/mL, 30 min)
[2] = molecular target: LZ-EGFR-GFP (chimeric EGFR with the extracellular domain replaced by the c-Fos leucine zipper, GFP at the C-terminus) (UniProt P01100); test: SDS-resistant dimer on SDS-PAGE immunoblot; total Triton X-100 lysates of transfected 293T cells boiled in SDS-loading buffer with beta-mercaptoethanol, no cross-linker; immunoblot with anti-pEGFR antibodies

In the case of “LZ-EGFR-GFP (chimeric EGFR with the extracellular domain replaced by the c-Fos leucine zipper, GFP at the C-terminus) (from UniProt P01100 160-200; P00533 623-1210) (receptor)”, the stoichiometry N [1] is reported as 2 and the stoichiometry N [2] is reported as 2.
